# Source: paper PMC9747329 (ACS chemical biology, 2022)
# Residues, ends and D or L forms follow the SMILES beside them. No end group written: not given here. *: point of attachment. X1 = CN(C)c1ccc2c(-c3cc(C(=O)*)ccc3C(=O)[O-])c3ccc(=[N+](C)C)cc-3oc2c1
# What was measured:
# nLuc-PTHR1 = target: T1, nLuc-PTHR1 (Homo sapiens, UniProt Q03431); assay type: binding; details: for koff / kon: HEK293
# T1 sequence (Q03431 27-593): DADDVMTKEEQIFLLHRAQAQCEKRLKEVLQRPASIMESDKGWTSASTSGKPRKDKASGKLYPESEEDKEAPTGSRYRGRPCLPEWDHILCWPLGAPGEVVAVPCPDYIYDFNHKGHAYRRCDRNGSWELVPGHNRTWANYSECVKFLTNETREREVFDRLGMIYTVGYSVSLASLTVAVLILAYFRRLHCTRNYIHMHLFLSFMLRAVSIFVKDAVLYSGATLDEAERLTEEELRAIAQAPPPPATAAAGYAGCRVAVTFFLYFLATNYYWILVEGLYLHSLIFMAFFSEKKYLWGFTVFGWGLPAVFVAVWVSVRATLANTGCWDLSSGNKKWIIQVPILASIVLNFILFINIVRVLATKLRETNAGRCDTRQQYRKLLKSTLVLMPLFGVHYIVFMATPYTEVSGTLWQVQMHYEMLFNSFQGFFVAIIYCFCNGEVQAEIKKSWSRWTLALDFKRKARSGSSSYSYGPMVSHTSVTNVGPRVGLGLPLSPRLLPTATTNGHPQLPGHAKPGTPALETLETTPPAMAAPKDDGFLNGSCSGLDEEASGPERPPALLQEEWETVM
# WT-PTHR1 = target: T2, WT-PTHR1 (Homo sapiens, UniProt Q03431); experiment: GloSensor cAMP assay in GP2.3 cells; assay type: cell-based; details: for Emax: HEK293, read-out: cAMP formation %Emax
# T2 sequence (Q03431 27-593): T1 sequence (Q03431 27-593)
# [1] = target: nLuc-PTHR1 (human parathyroid hormone receptor-1 with NanoLuc luciferase fused to the N-terminus) (human) (UniProt Q03431); experiment: FRET or BRET
# [2] = target: nLuc-ΔECD-PTHR1 (truncated PTHR1 lacking most of the extracellular domain, preceded by NanoLuc luciferase) (human) (UniProt Q03431); experiment: FRET or BRET
# [3] = target: nLuc-PTHR1 (human parathyroid hormone receptor-1 with NanoLuc luciferase fused to the N-terminus) (human) (UniProt Q03431)
Compound,Kd [1],koff [1],kon [1],cAMP formation (GloSensor): %Emax [3],cAMP formation (GloSensor): EC50 [3],also measured
CC[C@H](C)[C@H](NC(=O)[C@H](CCCCNC(=O)c1ccc(C(=O)[O-])c(-c2c3ccc(=[N+](C)C)cc-3oc3cc(N(C)C)ccc23)c1)NC(=O)[C@H](C)NC(=O)[C@@H](NC(=O)[C@H](Cc1c[nH]cn1)NC(=O)[C@@H](NC(=O)[C@H](CCC(=O)O)NC(=O)[C@H](C)NC(=O)[C@@H](NC(=O)[C@H](CC(C)C)NC(=O)[C@H](Cc1c[nH]cn1)NC(=O)[C@H](Cc1c[nH]cn1)NC(=O)[C@H](CC(C)C)NC(=O)[C@H](Cc1ccccc1)NC(=O)[C@H](Cc1ccccc1)NC(=O)[C@H](CCCNC(=N)N)NC(=O)[C@H](CCCNC(=N)N)NC(=O)[C@H](CCCNC(=N)N)NC(=O)[C@H](CC(C)C)NC(=O)[C@H](CC(=O)O)NC(=O)[C@H](CCC(N)=O)NC(=O)[C@@H](NC(=O)[C@H](CO)NC(=O)[C@H](CCCCN)NC(=O)CNC(=O)[C@H](CC(C)C)NC(=O)[C@H](CC(N)=O)NC(=O)[C@H](Cc1c[nH]cn1)NC(=O)[C@H](CCSC)NC(=O)[C@H](CC(C)C)NC(=O)[C@H](CCC(N)=O)NC(=O)[C@@H](NC(=O)[C@H](CCC(=O)O)NC(=O)[C@H](CO)NC(=O)[C@@H](NC(=O)[C@@H](N)CO)C(C)C)[C@@H](C)CC)[C@@H](C)CC)[C@@H](C)CC)[C@@H](C)CC)[C@@H](C)O)C(N)=O [PTH[1-12] PTHrP[13-36]] (H-SVSEIQLMHNLGKSIQDLRRRFFLHHLIAEIHTAK(X1)I-NH2; N-terminus assumed),,,,,,koff (nLuc-PTHR1): 0.0035 ± 0.001 s⁻¹; kon (nLuc-PTHR1): 800000 ± 50000 M⁻¹ s⁻¹; Emax (WT-PTHR1): 107 ± 5%
CC[C@H](C)[C@H](NC(=O)[C@H](CCCCNC(=O)c1ccc(C(=O)[O-])c(-c2c3ccc(=[N+](C)C)cc-3oc3cc(N(C)C)ccc23)c1)NC(=O)[C@H](C)NC(=O)[C@@H](NC(=O)[C@H](Cc1c[nH]cn1)NC(=O)[C@@H](NC(=O)[C@H](CCC(=O)O)NC(=O)[C@H](C)NC(=O)[C@@H](NC(=O)[C@H](CC(C)C)NC(=O)[C@H](Cc1c[nH]cn1)NC(=O)[C@H](Cc1c[nH]cn1)NC(=O)[C@H](CC(C)C)NC(=O)[C@H](Cc1ccccc1)NC(=O)[C@H](Cc1ccccc1)NC(=O)[C@H](CCCNC(=N)N)NC(=O)[C@H](CCCNC(=N)N)NC(=O)[C@H](CCCNC(=N)N)NC(=O)[C@H](CC(C)C)NC(=O)[C@H](CC(=O)O)NC(=O)[C@H](CCC(N)=O)NC(=O)[C@@H](NC(=O)[C@H](Cc1c[nH]cn1)NC(=O)[C@H](CCCCN)NC(=O)CNC(=O)[C@H](CC(C)C)NC(=O)[C@H](CC(N)=O)NC(=O)[C@H](Cc1c[nH]cn1)NC(=O)[C@H](CCSC)NC(=O)[C@H](CC(C)C)NC(=O)[C@H](CCC(N)=O)NC(=O)[C@@H](NC(=O)[C@H](CCC(=O)O)NC(=O)[C@H](CO)NC(=O)[C@@H](NC(=O)[C@@H](N)CO)C(C)C)[C@@H](C)CC)[C@@H](C)CC)[C@@H](C)CC)[C@@H](C)CC)[C@@H](C)O)C(N)=O [PTH[1-14] PTHrP[15-36]] (H-SVSEIQLMHNLGKHIQDLRRRFFLHHLIAEIHTAK(X1)I-NH2; N-terminus assumed),,,,,,koff (nLuc-PTHR1): 0.0022 ± 0.0009 s⁻¹; kon (nLuc-PTHR1): 350000 ± 40000 M⁻¹ s⁻¹; Emax (WT-PTHR1): 106 ± 1%
CC[C@H](C)[C@H](NC(=O)[C@H](CCCCNC(=O)c1ccc(C(=O)[O-])c(-c2c3ccc(=[N+](C)C)cc-3oc3cc(N(C)C)ccc23)c1)NC(=O)[C@H](C)NC(=O)[C@@H](NC(=O)[C@H](Cc1c[nH]cn1)NC(=O)[C@@H](NC(=O)[C@H](CCC(=O)O)NC(=O)[C@H](C)NC(=O)[C@@H](NC(=O)[C@H](CC(C)C)NC(=O)[C@H](Cc1c[nH]cn1)NC(=O)[C@H](Cc1c[nH]cn1)NC(=O)[C@H](CC(C)C)NC(=O)[C@H](Cc1ccccc1)NC(=O)[C@H](Cc1ccccc1)NC(=O)[C@H](CCCNC(=N)N)NC(=O)[C@H](CCCNC(=N)N)NC(=O)[C@H](CCCNC(=N)N)NC(=O)[C@H](CC(C)C)NC(=O)[C@H](CC(=O)O)NC(=O)[C@H](CC(N)=O)NC(=O)[C@H](CC(C)C)NC(=O)[C@H](Cc1c[nH]cn1)NC(=O)[C@H](CCCCN)NC(=O)CNC(=O)[C@H](CC(C)C)NC(=O)[C@H](CC(N)=O)NC(=O)[C@H](Cc1c[nH]cn1)NC(=O)[C@H](CCSC)NC(=O)[C@H](CC(C)C)NC(=O)[C@H](CCC(N)=O)NC(=O)[C@@H](NC(=O)[C@H](CCC(=O)O)NC(=O)[C@H](CO)NC(=O)[C@@H](NC(=O)[C@@H](N)CO)C(C)C)[C@@H](C)CC)[C@@H](C)CC)[C@@H](C)CC)[C@@H](C)O)C(N)=O [PTH[1-16] PTHrP[17-36]] (H-SVSEIQLMHNLGKHLNDLRRRFFLHHLIAEIHTAK(X1)I-NH2; N-terminus assumed),,,,,,koff (nLuc-PTHR1): 0.0017 ± 0.001 s⁻¹; kon (nLuc-PTHR1): 530000 ± 30000 M⁻¹ s⁻¹; Emax (WT-PTHR1): 103 ± 4%
"AVAEIQLMHQRAKWIQDARRRAFLHKLIAEIHTA-NH2 [LA-PTH, reference compound]",,,,,,"difference in KD between PTH and LA-PTH (nLuc-PTHR1; direct-binding assay, K35^TMR peptides): ~ 5 fold"
"LA-PTH (long-acting PTH), unlabeled (peptide)",,,,,,IC50 [1]: 4.1 nM
LA-PTH(1-34)-35K^TMR (peptide),2.4 nM,0.00056 s⁻¹,230000 M⁻¹ s⁻¹,,,Kd [2]: 72 nM; koff [2]: 0.0097 s⁻¹; kon [2]: 130000 M⁻¹ s⁻¹
M-PTH(1-14)-15K^TMR (peptide),310 nM,0.024 s⁻¹,77000 M⁻¹ s⁻¹,,,Kd [2]: 106 nM; koff [2]: 0.018 s⁻¹; kon [2]: 180000 M⁻¹ s⁻¹
PTH(1-34)-N33K^TMR (peptide),11 nM,0.0043 s⁻¹,,,,
"PTH(1-34)K35^TMR, I5H variant (peptide)",104 nM,0.071 s⁻¹,440000 M⁻¹ s⁻¹,,,
"PTH(2-34): N-terminally truncated analogue of PTH(1-34) (VSEIQLMHNLGKHLNSMERVEWLRKKLQDVHNF-NH2; UniProt P01270 33-65, looked up, fragment) [reference compound]",,,,,,EC50 for cAMP production relative to EC50 of PTH(1-34) (fold higher) (WT-PTHR1; estimated for the D-peptide): ~ 10 fold
PTH(2-34)K35^TMR (peptide),21 nM,0.0053 s⁻¹,250000 M⁻¹ s⁻¹,,,
"PTH(3-34): N-terminally truncated analogue of PTH(1-34) (SEIQLMHNLGKHLNSMERVEWLRKKLQDVHNF-NH2; UniProt P01270 34-65, looked up, fragment) [reference compound]",,,,,,"agonist activity, cAMP production via the PTHR1 (in words) (WT-PTHR1): only minimal activity"
PTH(3-34)K35^TMR (peptide),27 nM,0.0094 s⁻¹,340000 M⁻¹ s⁻¹,,,
"PTH[1-12] PTHrP[13-36] hybrid, Lys35(TMR) (peptide)",4.4 nM,0.0035 s⁻¹,,107%,0.55 nM,
"PTH[1-14] PTHrP[15-36] hybrid, Lys35(TMR) (peptide)",6.1 nM,0.0022 s⁻¹,350000 M⁻¹ s⁻¹,106%,0.89 nM,
"PTH[1-16] PTHrP[17-36] hybrid, Lys35(TMR) (peptide)",3.4 nM,0.0017 s⁻¹,530000 M⁻¹ s⁻¹,103%,0.79 nM,
"PTH[1-18] PTHrP[19-36] hybrid, Lys35(TMR) (peptide)",26 nM,0.0079 s⁻¹,320000 M⁻¹ s⁻¹,106%,0.99 nM,
PTHrP(1-34)-His5-Ile-K35^TMR (peptide),5 nM,,,,,
"PTHrP(1-36): N-terminal fragment of parathyroid hormone-related protein, literature comparator [reference compound]",,,,,,"KD with Ile5 relative to His5 at position 5 (fold lower) (nLuc-PTHR1; pH 7.5, K35^TMR-labeled peptides): ~ 5 fold"
"PTHrP[1-12] PTH[13-34] hybrid, Lys35(TMR) (peptide)",49 nM,0.029 s⁻¹,590000 M⁻¹ s⁻¹,,0.15 nM,
"PTHrP[1-14] PTH[15-34] hybrid, Lys35(TMR) (peptide)",63 nM,0.043 s⁻¹,680000 M⁻¹ s⁻¹,97%,0.39 nM,
"PTHrP[1-16] PTH[17-34] hybrid, Lys35(TMR) (peptide)",95 nM,0.041 s⁻¹,430000 M⁻¹ s⁻¹,105%,0.48 nM,
"PTHrP[1-18] PTH[19-34] hybrid, Lys35(TMR) (peptide)",,,,99%,0.16 nM,
